The source of these data is patent publication US20230017515A1 (JIANGSU ALPHAMAB BIOPHARMACEUTICALS, published 2023).

The test deals with T1, human PD-L1 (WT) (human, UniProt Q9NZQ7 19-127, limits assumed).
T1 construct: also called human PD-L1 N-terminal IgV domain
Briefly: affinity measurement, method not stated.

T1 sequence (Q9NZQ7 19-127 limits assumed): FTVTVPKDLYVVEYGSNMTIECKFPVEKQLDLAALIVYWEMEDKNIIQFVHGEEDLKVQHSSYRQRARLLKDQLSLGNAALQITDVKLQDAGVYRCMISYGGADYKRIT

B1: PD-L1 ISVD-9 (VHH)
VHH: QVQLVESGGGLVQPGGSLRLSCAASGKMSSRRCMAWFRQAPGKERERVAKLLTTSGSTYLADSVKGRFTISRDNSKNTVYLQMNSLRAEDTAVYYCAADSFEDPTCTLVTSSGAFQYWGQGTLVTVSS
notes: also called ISVD specific for PD-L1; aPDL1.9
Consider B1, for which the Kd came to 5.92 nM.

One may read the Kd as the constant that tells how readily two partners part at equilibrium. Lower therefore signals a tighter complex.
